Reference: paper PMC4018323 (Cell, 2014)

T1: 6xHis-SUMO-tagged MYO18A motor domain (aa 408-1,242) (UniProt Q92614 408-1242)
T1 sequence (looked up): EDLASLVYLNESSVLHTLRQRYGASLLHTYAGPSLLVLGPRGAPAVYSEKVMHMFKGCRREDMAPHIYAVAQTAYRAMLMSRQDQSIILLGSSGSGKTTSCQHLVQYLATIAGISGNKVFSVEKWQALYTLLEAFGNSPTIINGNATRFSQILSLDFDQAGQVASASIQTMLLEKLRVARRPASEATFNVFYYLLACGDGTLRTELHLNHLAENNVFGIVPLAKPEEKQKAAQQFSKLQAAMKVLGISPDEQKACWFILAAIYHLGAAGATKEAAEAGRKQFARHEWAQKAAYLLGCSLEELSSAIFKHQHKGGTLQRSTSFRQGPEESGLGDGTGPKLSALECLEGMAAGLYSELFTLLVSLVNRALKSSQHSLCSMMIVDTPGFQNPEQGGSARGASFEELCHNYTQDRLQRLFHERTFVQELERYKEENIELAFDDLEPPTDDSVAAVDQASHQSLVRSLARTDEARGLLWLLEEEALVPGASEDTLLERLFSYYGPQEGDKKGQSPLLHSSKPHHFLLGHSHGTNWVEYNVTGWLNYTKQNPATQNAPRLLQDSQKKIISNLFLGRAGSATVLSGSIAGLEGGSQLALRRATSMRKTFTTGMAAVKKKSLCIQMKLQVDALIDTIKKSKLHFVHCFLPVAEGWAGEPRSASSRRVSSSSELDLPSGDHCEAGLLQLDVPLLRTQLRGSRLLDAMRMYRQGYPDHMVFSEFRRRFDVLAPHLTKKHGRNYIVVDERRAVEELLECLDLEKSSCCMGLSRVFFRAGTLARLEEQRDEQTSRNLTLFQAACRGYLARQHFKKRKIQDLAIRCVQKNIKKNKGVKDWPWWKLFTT


Target: T1, 6xHis-SUMO-tagged MYO18A motor domain …
Experiment: pull-down

Binder | fold of interaction versus WT [fold]
GOLPH3 DQ-DVQ phosphomimetic mutant, purified, bacterially expressed (natural protein, UniProt Q9H4A6 1-298, looked up) MTSLTQRSSGLVQRRTEASRNAADKERAAGGGAGSSEDDAQSRRDEQDDDDKGDSKETRLTLMEEVLLLGLKDREGYTSFWNDCISSGLRGCMLIELALRGRLQLEACGMRRKSLLTRKVICKSDAPTGDVLLDEALKHVKEDQPPEDVQNWIELLSGETWNPLKLHYQLRNVRERLAKNLVEKGVLTTEKQNFLLFDMTTHPLTNNNIKQRLIKKVQEAVLDKWVNDPHRMDRRLLALIYLAHASDVLENAFAPLLDEQYDLATKRVRQLLDLDPEVECLKANTNEVLWAVVAAFTK | 2.2
GOLPH3 EQ-EVQ phosphomimetic mutant, purified, bacterially expressed (natural protein, UniProt Q9H4A6 1-298, looked up) MTSLTQRSSGLVQRRTEASRNAADKERAAGGGAGSSEDDAQSRRDEQDDDDKGDSKETRLTLMEEVLLLGLKDREGYTSFWNDCISSGLRGCMLIELALRGRLQLEACGMRRKSLLTRKVICKSDAPTGDVLLDEALKHVKEEQPPEEVQNWIELLSGETWNPLKLHYQLRNVRERLAKNLVEKGVLTTEKQNFLLFDMTTHPLTNNNIKQRLIKKVQEAVLDKWVNDPHRMDRRLLALIYLAHASDVLENAFAPLLDEQYDLATKRVRQLLDLDPEVECLKANTNEVLWAVVAAFTK | 1.9
